# System: green fluorescent protein (GFP) carrying an ssrA tag at the C-terminus
substance,measurement,value
unfoldase ClpX,"controlled translocation through the opened ClpP-nanopore (ionic current traces, ATP present)",ClpX-assisted transport of GFP across opened ClpP-nanopore in the presence of ATP
